Consider seven molecules from patent US20220040319A1 (Regeneron, published 2022).

B1: H4H13299P2 (antibody, human IgG4, V domains shown)
VH: EVQLVESGGGLVQPGGSLRLSCAASGFIFSNYEMNWVRQAPGKGLEWISYITSSGNMKYYADSVKGRFTISRDNDKNSLYLQMSSLRVEDTAVYYCVRGGRFLEWLTYYVMVVWGQGTTVTVSS
VL: not shown
notes: human IgG4 Fc (H4H), bivalent monospecific
B2: H4H13302P2 (antibody, human IgG4, V domains shown)
VH: QVQLVESGGGVVQPGRSLRLSCAASGFTFSNFGMHWVRQAPGKGLEWVAGIWFDGSNKNYIDSVKGRFTISRDNSKNTLYLQMNSLRAEDTAVYYCAREGYDSGTDYIPYDIFDIWGQGTMVTVSS
VL: not shown
notes: as for B1
B3: H4H13300P2 (antibody, human IgG4, V domains shown)
VH: QVQLVESGGGVVQPGRSLRLSCAVSGFTFSSYGMHWVRQAPGKGLEWVANIWYDGTNDYYPYSVKGRFTISRDNSQNTLYLQMNSLRAEDTAVYYCAREDFINYRSFDYWGQGTLVTVSS
VL: not shown
notes: as for B1
B4: H4H13301P2 (antibody, human IgG4, V domains shown)
VH: QVQLVESGGGVVQPGTSLRLSCVASGFTFRNFGMHWVRQAPGKGLEWVANIWFDGSNENYVESIQGRFTISRDNSKNTLNLQMNSLRAEDSAVYYCVREGILGTTNPYDAFDVWGQGTMVTVSS
VL: not shown
notes: as for B1
B5: H4H13312P2-Maytansinoid A (antibody, IgG4, V domains shown)
VH: EVQLVESGGGLVQPGGSLRLSCAASGFIVTTNYMTWLRQAPGKGLEWVSLIYSSGHTYYADSVKGRFTISRHNSKNTLYLQMDSLRAEDTAVYYCASAFAADVFDIWGQGTMVTVSS
VL: not shown
modifications: SMCC-DM1 (Maytansinoid A) linker-payload conjugated to the antibody; residues not stated
B6: H4H13312P2-Maytansinoid B (antibody, IgG4, V domains shown)
VH: B5 VH
VL: not shown
modifications: Maytansinoid B (Compound 1, FIG. 20) linker-payload conjugated to the antibody; residues not stated
B7: H4H14635D-Maytansinoid A (bispecific antibody, V domains shown)
VH 1: QVQLVESGGGVVQPGRSLRVSCVVSGFTFSSFGMHWVRQAPDKGLEWVAVIWYDGSNDYYSDSVKGRFTISRDNSKNTLFLQMNRLRAEDTAVYYCARANNWNRFDAFDLWGQGTMVTVSS
VH 2: B5 VH
VL: not shown
modifications: SMCC-DM1 (Maytansinoid A) linker-payload conjugated to the antibody; residues not stated

T2 sequence (P08581 other isoform, or with tags, fused parts or gaps limits assumed, chain 1 of 2): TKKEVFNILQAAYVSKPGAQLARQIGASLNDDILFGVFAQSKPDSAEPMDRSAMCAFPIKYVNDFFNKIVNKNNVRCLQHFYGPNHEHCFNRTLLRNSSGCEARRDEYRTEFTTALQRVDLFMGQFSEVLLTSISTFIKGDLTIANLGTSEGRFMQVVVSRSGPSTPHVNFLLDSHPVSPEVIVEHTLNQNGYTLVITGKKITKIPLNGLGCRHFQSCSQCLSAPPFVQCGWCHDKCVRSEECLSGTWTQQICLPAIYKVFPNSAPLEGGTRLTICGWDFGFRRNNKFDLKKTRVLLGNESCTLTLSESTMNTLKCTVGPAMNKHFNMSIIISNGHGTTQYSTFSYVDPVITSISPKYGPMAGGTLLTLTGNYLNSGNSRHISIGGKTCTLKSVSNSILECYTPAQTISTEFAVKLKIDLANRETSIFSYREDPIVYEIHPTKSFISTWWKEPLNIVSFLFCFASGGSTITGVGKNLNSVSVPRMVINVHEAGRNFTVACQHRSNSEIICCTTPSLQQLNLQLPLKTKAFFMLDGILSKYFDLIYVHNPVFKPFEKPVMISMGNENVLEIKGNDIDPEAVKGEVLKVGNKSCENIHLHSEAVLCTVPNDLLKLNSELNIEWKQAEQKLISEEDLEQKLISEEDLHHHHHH
T2 sequence (P08581 27-307 limits assumed, chain 2 of 2): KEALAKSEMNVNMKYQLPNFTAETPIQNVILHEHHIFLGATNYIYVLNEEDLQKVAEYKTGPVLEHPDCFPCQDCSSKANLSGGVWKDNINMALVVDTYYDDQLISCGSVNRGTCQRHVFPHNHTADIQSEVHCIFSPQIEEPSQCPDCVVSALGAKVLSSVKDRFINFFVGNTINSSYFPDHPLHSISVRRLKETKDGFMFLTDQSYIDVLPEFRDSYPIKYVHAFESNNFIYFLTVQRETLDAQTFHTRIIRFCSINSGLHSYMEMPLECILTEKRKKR
T1 sequence (P08581 other isoform, or with tags, fused parts or gaps limits assumed, chain 1 of 2): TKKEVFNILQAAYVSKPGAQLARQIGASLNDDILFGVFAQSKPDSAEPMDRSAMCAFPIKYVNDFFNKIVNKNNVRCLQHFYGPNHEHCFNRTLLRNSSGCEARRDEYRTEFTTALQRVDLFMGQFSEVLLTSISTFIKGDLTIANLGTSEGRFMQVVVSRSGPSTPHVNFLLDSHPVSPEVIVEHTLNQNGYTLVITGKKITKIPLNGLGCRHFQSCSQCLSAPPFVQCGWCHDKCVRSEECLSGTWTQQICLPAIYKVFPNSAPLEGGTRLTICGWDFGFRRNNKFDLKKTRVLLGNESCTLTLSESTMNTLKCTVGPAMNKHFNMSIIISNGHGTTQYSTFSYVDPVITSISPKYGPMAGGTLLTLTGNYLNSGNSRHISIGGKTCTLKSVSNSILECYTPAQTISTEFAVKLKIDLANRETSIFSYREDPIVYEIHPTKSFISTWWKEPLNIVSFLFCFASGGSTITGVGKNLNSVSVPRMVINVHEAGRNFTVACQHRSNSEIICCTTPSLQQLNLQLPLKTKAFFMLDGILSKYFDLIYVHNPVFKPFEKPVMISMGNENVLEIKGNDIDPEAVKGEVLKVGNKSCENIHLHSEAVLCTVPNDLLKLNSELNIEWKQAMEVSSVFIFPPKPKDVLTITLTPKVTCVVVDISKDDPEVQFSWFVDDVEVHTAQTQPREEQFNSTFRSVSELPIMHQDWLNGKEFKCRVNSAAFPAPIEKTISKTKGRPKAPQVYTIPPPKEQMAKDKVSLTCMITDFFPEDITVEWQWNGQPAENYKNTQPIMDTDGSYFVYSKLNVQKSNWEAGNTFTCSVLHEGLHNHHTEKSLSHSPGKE
T1 sequence (P08581 27-307 limits assumed, chain 2 of 2): as the sequence (P08581 27-307 limits assumed, chain 2 of 2) above

The first assay concerns the target T1, hMET.mFc (dimeric human MET) (human, UniProt P08581 27-307).
T1 construct: soluble dimeric MET protein
Kind of assay: SPR 37C, antibody captured. The method, then:
(§1) The anti-Met antibodies tested in this example were bivalent monospecific binders of MET.
(§2) Kinetic association (kₐ) and dissociation (kd) rate constants were determined by fitting the real-time sensorgrams to a 1:1 binding model using Scrubber 2.0c curve fitting software. Binding dissociation equilibrium constant (KD) and dissociative half-life (t1/2) were calculated from the kinetic rate constants as: […]
For the molecule B1, the Kd (usually the equilibrium constant for the complex coming apart) was 0.878 nM, the T½ stood at 36.8 min, the koff (commonly a measure of how fast the partners let go of each other) came to 0.000314 s⁻¹ and the kon (usually a measure of how fast the partners come together) is 357000 M⁻¹ s⁻¹.

Consider B2, for which the affinity, expressed as Kd, was 2.33 nM; the T½ came out at 19.8 min; the koff turned out to be 0.000584 s⁻¹; the kon was found to be 251000 M⁻¹ s⁻¹.

For the molecule B3, the Kd is 1.12 nM, the T½ worked out at 39.1 min, the koff amounted to 0.000295 s⁻¹ and the kon was determined as 265000 M⁻¹ s⁻¹.

Take B4: the Kd came out at 1.62 nM, the T½ is 10.1 min, the koff was determined as 0.00114 s⁻¹ and the kon came to 705000 M⁻¹ s⁻¹.

A further assay concerns the target T2, hMet.mmh (human MET extracellular domain with C-terminal myc-myc-hexahistidine tag) (human, UniProt P08581 309-914; P08581 27-307).
T2 construct: soluble monomeric MET; also called monomeric human MET
As to the kind of experiment: SPR 37C, antibody captured. The method, then: as §1, §2
B1 showed a Kd of 8.57 nM, a T½ of 14.8 min, a koff of 0.00078 s⁻¹ and a kon of 91000 M⁻¹ s⁻¹.

Regarding B2, the Kd was found to be 47 nM, the T½ worked out at 4.7 min, the koff worked out at 0.00246 s⁻¹ and the on-rate constant (kon) amounted to 52400 M⁻¹ s⁻¹.

In the case of B3, the affinity, expressed as Kd, was 72.5 nM; the T½ worked out at 4.8 min; the koff amounted to 0.00243 s⁻¹; the kon was found to be 33500 M⁻¹ s⁻¹.

On to B4, for which the Kd is 82.2 nM, the T½ came out at 1.9 min, the koff turned out to be 0.00622 s⁻¹ and the on-rate (kon) worked out at 75700 M⁻¹ s⁻¹.

The target in a further assay is human MET on cells (human, UniProt P08581 25-1390). Kind of assay: cell-based or functional assay.
human MET on cells, sequence (P08581 25-1390 limits assumed, form in doubt): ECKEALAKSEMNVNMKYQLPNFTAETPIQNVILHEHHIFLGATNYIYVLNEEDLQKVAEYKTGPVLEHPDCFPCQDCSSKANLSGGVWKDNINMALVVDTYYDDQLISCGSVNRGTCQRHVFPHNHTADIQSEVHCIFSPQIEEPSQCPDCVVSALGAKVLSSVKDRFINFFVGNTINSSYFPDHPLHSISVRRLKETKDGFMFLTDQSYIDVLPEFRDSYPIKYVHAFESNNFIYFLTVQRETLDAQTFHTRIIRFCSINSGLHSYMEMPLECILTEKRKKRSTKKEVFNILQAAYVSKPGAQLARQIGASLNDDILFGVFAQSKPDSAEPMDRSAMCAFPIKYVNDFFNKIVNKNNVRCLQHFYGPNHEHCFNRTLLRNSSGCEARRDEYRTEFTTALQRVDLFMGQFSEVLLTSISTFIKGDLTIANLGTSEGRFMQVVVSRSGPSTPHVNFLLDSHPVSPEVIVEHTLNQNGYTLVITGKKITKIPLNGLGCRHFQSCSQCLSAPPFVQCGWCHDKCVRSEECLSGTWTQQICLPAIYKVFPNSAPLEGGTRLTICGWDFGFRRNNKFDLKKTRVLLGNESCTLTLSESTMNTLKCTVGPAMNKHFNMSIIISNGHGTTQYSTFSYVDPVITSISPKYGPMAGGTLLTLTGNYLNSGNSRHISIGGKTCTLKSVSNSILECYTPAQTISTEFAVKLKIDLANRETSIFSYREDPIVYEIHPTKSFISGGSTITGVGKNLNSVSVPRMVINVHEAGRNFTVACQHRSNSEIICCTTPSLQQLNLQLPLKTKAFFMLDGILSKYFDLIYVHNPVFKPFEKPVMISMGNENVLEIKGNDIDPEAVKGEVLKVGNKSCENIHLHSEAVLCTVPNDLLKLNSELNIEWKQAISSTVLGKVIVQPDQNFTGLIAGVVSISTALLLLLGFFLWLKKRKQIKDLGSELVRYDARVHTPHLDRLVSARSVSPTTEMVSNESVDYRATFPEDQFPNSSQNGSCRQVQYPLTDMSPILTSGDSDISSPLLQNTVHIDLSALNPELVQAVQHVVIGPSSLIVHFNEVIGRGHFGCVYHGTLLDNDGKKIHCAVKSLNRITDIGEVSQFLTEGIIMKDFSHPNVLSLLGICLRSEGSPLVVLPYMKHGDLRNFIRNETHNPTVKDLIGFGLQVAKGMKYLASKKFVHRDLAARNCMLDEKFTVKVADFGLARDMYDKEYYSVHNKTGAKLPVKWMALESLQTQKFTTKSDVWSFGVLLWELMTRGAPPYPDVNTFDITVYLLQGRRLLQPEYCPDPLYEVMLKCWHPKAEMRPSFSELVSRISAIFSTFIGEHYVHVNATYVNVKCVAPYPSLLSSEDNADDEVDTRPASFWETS
As for B5, the “IC50, 6-day in vitro cytotoxicity, A549” value turned out to be 18.3 nM; the “IC50, 6-day in vitro cytotoxicity, EBC-1” value amounted to 0.39 nM; the “IC50, 6-day in vitro cytotoxicity, Hs746t” value (from here on “IC50, 6-day … Hs746t”) is 1.59 nM; the “Max % Kill, 6-day in vitro cytotoxicity, A549” value (shortened to “Max % Kill, 6-day … A549”) was found to be 89%. In addition, the “Max % Kill, 6-day in vitro cytotoxicity, EBC-1” value (“Max % Kill, 6-day … EBC-1” below) came out at 95% and the “Max % Kill, 6-day in vitro cytotoxicity, Hs746t” value (shortened to “Max % Kill, 6-day … Hs746t”) amounted to 87%.

For B6, the “IC50, 6-day in vitro cytotoxicity, A549” value stood at 27.1 nM; the “IC50, 6-day in vitro cytotoxicity, EBC-1” value worked out at 0.07 nM; the “IC50, 6-day … Hs746t” value is 0.89 nM; the “Max % Kill, 6-day … A549” value was determined as 85%. The “Max % Kill, 6-day … EBC-1” value came to 95% and the “Max % Kill, 6-day … Hs746t” value came to 90%.

On to B7, for which the “IC50, 6-day in vitro cytotoxicity, A549” value was 6.78 nM; the “IC50, 6-day in vitro cytotoxicity, EBC-1” value was found to be 0.76 nM; the “IC50, 6-day … Hs746t” value came out at 1.76 nM; the “Max % Kill, 6-day … A549” value stood at 91%. Also, the “Max % Kill, 6-day … EBC-1” value came out at 96% and the “Max % Kill, 6-day … Hs746t” value was 86%.
